Results as given in publication PMC3701577, “Characterization of DNA Binding Property of the HIV-1 Host Factor and Tumor Suppressor Protein Integrase Interactor 1 (INI1/hSNF5)”.

B1: U5 HIV-1 LTR DNA (U5.4/U5.5) (dsDNA)
DNA 1: ACTGCTAGAGATTTTCCGGATCC
DNA 2: GGATCCGGAAAATCTCTAGCA

Assays:
[1] = molecular target: INI1 DNA binding domain (INI1/hSNF5 amino acids 105-183) (human) (UniProt Q12824); experiment: AUC; sedimentation equilibrium, 60 µM INI1 DBD (monomer concentration), 4°C, 13,000-28,000 rpm, 20 mM HEPES-KOH pH 7.2, 100 mM KCl, 5-7% glycerol, 1 mM DTT, absorbance at 280 nm; species analysis in SEDPHAT
SNR1 DBD, SNR1(90-167) = molecular target: T1, SNR1 DBD, SNR1(90-167) (Drosophila melanogaster, UniProt Q7K0F9 90-167); experiment: Ni-NTA pull-down; 55 uM dimer, 110 uM DNA; ITC at 25 C (buffer not stated in material; protein dialyzed in 20 mM HEPES pH 7.2, 100 mM KCl, 10% glycerol, 0.1 mM EDTA, 1 mM DTT); pull-down in 20 mM HEPES pH 7.2, 100 mM KCl, 5% glycerol, 1 mM DTT, RT 30 min then ice; conditions: protein: recombinant; tags: His tag (pET28a), 37-aa N-terminal extension; chain copies: 2; 5' overhang 2 nt on strand 1 (AC)
T1 sequence: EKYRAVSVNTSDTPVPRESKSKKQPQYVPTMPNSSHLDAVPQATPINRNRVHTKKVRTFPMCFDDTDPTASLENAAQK

INI1 DBD, INI1(105-183) = INI1 DBD, INI1(105-183) (human, UniProt Q12824 105-183); experiment: ITC; 10 uM monomer, 55 uM DNA in syringe; one-site, N=0.49; ITC at 25 C (buffer not stated in material; protein dialyzed in 20 mM HEPES pH 7.2, 100 mM KCl, 10% glycerol, 0.1 mM EDTA, 1 mM DTT); pull-down in 20 mM HEPES pH 7.2, 100 mM KCl, 5% glycerol, 1 mM DTT, RT 30 min then ice; conditions: protein: recombinant; tags: His tag (pET28a), 24-aa N-terminal extension; 5' overhang 2 nt on strand 1 (AC)
INI1 DBD, INI1(105-183), sequence (Q12824 105-183): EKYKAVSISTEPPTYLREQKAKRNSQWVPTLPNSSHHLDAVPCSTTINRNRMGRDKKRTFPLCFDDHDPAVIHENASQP

[2] = molecular target: INI1 DBD dimer, INI1(105-183) (human, UniProt Q12824 105-183); experiment: ITC; 30 uM dimer, 325 uM DNA in syringe; sequential model, first binding event; ITC at 25 C (buffer not stated in material; protein dialyzed in 20 mM HEPES pH 7.2, 100 mM KCl, 10% glycerol, 0.1 mM EDTA, 1 mM DTT); pull-down in 20 mM HEPES pH 7.2, 100 mM KCl, 5% glycerol, 1 mM DTT, RT 30 min then ice; conditions: protein: recombinant; tags: His tag (pET28a), 24-aa N-terminal extension; chain copies: 2; 5' overhang 2 nt on strand 1 (AC)
INI1 DBD dimer, INI1(105-183), sequence (Q12824 105-183): as above

Molecule	stoichiometry N [1]	binding result (SNR1 DBD, SNR1(90-167))	Kd (INI1 DBD, INI1(105-183)) [µM]	Kd [2] [µM]
INI1 DNA binding domain (INI1/hSNF5 amino acids 105-183) (from UniProt Q12824 105-183) (domain or fragment)	2	–	–	–
B1	–	binds	0.94 ± 0.02	222 ± 51.8
